Consider two molecules from paper PMC6239180.

For series [1], the target named is T1, hPcf11 (CF II subunit);hClp1 (CF II subunit or alone) (human;human, UniProt O94913;Q92989 1-1555;1-425, |). The series is described as follows: UV cross-linking and immunoprecipitation.
The target of series [2] is T1, hPcf11 (CF II subunit);hClp1 (CF II …). The series is described as follows: EMSA.

T1 sequence (O94913 whole entry, chain 1 of 2): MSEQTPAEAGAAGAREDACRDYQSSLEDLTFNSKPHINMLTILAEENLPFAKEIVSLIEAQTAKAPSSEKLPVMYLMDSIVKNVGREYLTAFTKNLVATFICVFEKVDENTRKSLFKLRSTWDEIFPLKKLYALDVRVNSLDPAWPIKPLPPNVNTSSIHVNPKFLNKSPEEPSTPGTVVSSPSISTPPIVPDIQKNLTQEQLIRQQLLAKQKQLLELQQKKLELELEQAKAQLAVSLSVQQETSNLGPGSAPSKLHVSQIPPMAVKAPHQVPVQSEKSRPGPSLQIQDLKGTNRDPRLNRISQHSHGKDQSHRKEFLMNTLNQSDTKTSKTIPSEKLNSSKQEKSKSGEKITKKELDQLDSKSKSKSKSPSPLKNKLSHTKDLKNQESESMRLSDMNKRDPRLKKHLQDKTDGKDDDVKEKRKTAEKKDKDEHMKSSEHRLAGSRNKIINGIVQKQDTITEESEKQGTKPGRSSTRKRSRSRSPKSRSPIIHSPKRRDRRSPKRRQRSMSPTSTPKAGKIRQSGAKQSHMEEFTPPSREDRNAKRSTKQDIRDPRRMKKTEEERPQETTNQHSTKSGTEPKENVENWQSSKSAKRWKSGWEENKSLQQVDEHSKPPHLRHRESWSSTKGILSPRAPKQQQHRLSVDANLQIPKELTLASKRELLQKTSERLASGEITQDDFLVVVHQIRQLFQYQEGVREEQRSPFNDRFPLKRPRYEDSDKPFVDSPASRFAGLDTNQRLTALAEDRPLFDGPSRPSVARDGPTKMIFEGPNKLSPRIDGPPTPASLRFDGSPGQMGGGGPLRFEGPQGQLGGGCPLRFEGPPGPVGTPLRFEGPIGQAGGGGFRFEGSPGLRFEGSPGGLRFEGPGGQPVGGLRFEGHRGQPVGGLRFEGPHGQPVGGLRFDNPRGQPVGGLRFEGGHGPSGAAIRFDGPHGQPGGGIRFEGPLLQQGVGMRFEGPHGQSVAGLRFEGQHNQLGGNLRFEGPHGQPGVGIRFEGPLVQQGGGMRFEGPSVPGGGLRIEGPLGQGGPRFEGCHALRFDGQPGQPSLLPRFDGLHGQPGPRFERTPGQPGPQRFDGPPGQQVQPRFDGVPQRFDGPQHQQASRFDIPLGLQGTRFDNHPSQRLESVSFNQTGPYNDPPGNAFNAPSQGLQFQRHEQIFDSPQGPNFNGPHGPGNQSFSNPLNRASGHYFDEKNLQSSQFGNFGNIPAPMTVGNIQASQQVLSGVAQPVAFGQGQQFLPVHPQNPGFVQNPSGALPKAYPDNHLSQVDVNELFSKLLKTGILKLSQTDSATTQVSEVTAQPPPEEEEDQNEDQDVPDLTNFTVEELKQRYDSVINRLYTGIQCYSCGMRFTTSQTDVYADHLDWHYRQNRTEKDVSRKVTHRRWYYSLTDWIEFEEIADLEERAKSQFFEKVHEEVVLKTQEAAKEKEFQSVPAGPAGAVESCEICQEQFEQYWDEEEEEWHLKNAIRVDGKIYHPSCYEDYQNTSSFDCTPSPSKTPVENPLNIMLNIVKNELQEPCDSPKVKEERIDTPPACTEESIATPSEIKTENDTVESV
T1 sequence (Q92989 whole entry, chain 2 of 2): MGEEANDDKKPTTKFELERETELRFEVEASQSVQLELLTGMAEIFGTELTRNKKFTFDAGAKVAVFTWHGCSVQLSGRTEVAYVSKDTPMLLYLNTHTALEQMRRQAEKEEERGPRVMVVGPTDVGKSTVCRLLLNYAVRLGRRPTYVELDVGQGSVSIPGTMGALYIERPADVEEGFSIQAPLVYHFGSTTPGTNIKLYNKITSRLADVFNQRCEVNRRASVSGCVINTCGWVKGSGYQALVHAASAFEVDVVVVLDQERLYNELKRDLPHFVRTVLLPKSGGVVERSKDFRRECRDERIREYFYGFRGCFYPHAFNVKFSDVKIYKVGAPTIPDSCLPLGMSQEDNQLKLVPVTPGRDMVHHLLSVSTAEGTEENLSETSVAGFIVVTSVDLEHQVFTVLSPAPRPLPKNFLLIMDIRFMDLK

On to UUUUUUUUUUUUUU (ssRNA) [U14], for which, in series [1], the binding result is on record as “binds”.
In turn, GGGGGGGGGGGGGG (ssRNA) [G14] had an equilibrium dissociation constant (Kd) in series [2] of around 2 nM.
